Reference: paper PMC7395460, “Structural mechanism of helicase loading onto replication origin DNA by ORC-Cdc6” (Proceedings of the National Academy of Sciences of the …, 2020)

Assays:
Conditions in all cases: both partners purified
Mcm7 = target: T1, Mcm7 (S. cerevisiae, UniProt P38132 1-845); assay: cryo-EM structure; pre-insertion OCCM, 8.1 Å; same loading reaction (purified ORC, Cdc6, Cdt1, mutant Mcm2-7, ARS1 DNA, ATPγS); models docked as rigid bodies
T1 construct: Mcm7 of S. cerevisiae; Stood in the assay as a subunit of the mutant Mcm2-7; in the semi-attached OCCM only its WHD is resolved
T1 sequence (looked up): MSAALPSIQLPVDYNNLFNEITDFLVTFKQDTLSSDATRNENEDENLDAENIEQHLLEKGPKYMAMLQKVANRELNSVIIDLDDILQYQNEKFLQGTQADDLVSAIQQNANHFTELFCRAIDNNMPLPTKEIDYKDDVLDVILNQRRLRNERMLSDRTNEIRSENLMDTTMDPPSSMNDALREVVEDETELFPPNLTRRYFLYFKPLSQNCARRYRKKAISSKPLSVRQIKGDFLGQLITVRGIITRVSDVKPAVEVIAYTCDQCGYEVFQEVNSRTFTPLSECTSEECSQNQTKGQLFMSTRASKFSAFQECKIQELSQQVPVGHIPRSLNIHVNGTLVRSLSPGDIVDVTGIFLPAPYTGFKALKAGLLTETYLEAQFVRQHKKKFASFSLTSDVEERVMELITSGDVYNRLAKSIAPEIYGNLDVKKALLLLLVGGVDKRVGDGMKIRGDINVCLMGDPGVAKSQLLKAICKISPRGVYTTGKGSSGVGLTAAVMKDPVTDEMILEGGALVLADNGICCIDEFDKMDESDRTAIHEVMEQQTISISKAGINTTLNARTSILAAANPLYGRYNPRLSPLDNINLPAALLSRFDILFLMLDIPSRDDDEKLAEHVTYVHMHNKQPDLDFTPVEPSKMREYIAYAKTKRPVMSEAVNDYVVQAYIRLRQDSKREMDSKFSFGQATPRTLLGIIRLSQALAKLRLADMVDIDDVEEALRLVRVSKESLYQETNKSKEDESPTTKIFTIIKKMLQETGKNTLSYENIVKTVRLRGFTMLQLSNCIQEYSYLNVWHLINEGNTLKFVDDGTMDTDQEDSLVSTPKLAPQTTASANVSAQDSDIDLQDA

Mcm3 = target: T2, Mcm3 (S. cerevisiae, UniProt P24279 1-971); assay: as above
T2 construct: Mcm3 of S. cerevisiae; Stood in the assay as a subunit of the mutant Mcm2-7; in the semi-attached OCCM only its WHD is resolved
T2 sequence (P24279 whole entry): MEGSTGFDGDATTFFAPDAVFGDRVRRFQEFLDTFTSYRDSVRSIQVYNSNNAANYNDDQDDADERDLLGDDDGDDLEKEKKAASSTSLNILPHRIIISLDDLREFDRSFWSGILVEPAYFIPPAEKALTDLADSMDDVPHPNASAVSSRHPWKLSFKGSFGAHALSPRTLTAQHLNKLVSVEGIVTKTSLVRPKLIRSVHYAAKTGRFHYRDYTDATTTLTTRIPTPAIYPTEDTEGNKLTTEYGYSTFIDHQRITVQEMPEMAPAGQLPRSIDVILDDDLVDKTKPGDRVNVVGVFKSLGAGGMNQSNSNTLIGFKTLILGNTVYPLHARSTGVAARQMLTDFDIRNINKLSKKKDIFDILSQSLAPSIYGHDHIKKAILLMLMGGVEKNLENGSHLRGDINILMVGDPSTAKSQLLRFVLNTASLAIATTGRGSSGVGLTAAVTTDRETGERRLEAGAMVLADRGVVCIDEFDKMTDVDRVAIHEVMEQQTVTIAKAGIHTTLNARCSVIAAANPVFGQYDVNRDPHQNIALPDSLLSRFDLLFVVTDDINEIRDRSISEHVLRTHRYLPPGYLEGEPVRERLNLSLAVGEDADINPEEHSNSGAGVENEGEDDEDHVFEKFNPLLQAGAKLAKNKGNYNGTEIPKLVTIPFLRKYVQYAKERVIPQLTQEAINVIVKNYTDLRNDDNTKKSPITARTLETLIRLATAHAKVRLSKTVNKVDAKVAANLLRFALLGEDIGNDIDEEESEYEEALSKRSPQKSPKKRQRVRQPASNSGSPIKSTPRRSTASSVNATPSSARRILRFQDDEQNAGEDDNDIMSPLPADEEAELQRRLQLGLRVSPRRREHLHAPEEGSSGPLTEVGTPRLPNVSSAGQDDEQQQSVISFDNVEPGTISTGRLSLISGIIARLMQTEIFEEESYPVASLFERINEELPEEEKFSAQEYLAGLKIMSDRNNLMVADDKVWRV

Orc1 = target: T3, Orc1 (S. cerevisiae, UniProt P54784 1-914); assay: cryo-EM structure; semi-attached OCCM, 4.3 Å; assembled from purified ORC, Cdc6, Cdt1 and mutant Mcm2-7 on pUC19-ARS1 DNA beads with 3 mM ATPγS, 15 min at 24 °C, eluted with DNase I
T3 construct: Orc1, subunit of the S. cerevisiae origin recognition complex; Stood in the assay as a subunit of ORC
T3 sequence: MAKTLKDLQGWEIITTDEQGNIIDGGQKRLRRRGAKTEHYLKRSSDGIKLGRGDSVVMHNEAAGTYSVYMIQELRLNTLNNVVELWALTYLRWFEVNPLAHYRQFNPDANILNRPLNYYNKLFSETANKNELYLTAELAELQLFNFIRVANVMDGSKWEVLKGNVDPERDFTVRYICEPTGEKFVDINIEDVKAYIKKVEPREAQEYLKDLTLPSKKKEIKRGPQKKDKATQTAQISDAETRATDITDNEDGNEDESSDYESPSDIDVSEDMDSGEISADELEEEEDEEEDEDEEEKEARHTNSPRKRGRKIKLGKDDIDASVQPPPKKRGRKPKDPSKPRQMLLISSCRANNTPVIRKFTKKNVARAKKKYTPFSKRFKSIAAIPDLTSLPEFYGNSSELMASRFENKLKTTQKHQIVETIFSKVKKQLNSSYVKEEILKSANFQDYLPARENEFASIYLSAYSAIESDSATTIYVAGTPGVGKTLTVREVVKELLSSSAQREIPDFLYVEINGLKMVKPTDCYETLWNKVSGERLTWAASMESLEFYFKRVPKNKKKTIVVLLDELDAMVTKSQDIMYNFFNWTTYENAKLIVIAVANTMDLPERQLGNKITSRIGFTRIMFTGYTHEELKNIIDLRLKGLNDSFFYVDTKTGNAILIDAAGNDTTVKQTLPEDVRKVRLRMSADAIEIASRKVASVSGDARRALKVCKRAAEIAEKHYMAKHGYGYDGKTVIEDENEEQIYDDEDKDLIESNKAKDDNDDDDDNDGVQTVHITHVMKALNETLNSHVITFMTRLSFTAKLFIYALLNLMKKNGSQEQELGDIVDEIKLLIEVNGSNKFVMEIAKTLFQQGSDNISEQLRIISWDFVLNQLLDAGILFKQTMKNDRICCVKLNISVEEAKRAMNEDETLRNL

[1] = target: T4, origin recognition complex (Orc1-6; ORC) (S. cerevisiae, UniProt P54784 1-914; P32833 1-620; P54790 1-616; P54791 1-529; P50874 1-479; P38826 …); assay: as above
T4 construct: Orc1, subunit of the S. cerevisiae origin recognition complex; Orc2, subunit of the S. cerevisiae origin recognition complex; Orc3, subunit of the S. cerevisiae origin recognition complex; Orc4, subunit of the S. cerevisiae origin recognition complex; Orc5, subunit of the S. cerevisiae origin recognition complex; Orc6, subunit of the S. cerevisiae origin recognition complex; copies: + + + + +

- binding result (Mcm7): binds
- binding result (Mcm3): binds
- binding result (Orc1): binds
- binding result [1]: binds
B1: Cdc6 (natural protein, S. cerevisiae)
chain: MSAIPITPTKRIRRNLFDDAPATPPRPLKRKKLQFTDVTPESSPEKLQFGSQSIFLRTKALLQKSSELVNLNSSDGALPARTAEYEQVMNFLAKAISEHRSDSLYITGPPGTGKTAQLDMIIRQKFQSLPLSLSTPRSKDVLRHTNPNLQNLSWFELPDGRLESVAVTSINCISLGEPSSIFQKIFDSFQDLNGPTLQIKNMQHLQKFLEPYHKKTTFVVVLDEMDRLLHANTSETQSVRTILELFLLAKLPTVSFVLIGMANSLDMKDRFLSRLNLDRGLLPQTIVFQPYTAEQMYEIVIQKMSSLPTIIFQPMAIKFAAKKCAGNTGDLRKLFDVLRGSIEIYELEKRFLLSPTRGSLNSAQVPLTPTTSPVKKSYPEPQGKIGLNYIAKVFSKFVNNNSTRTRIAKLNIQQKLILCTIIQSLKLNSDATIDESFDHYIKAITKTDTLAPLQRNEFLEICTILETCGLVSIKKTKCKGKTKRFVDKIDVDLDMREFYDEMTKISILKPFLH
notes: Cdc6 of S. cerevisiae
